Data: article PMC11045720

Tests used:
[1] = target: Human 20 S proteasome (human); assay: mass photometry (native, nMP); samples diluted in their native buffer to 100-400 nM, then drop-diluted to 10-40 nM in a PBS droplet; room temperature (18 °C); triplicates
[2] = target: Human 20 S proteasome (human); assay: cross-linking; formaldehyde 0.05% to 1% (vol/vol) on 1 mg/mL protein, 20 min at room temperature; read by denaturing mass photometry
[3] = target: Alcohol dehydrogenase from baker's yeast (baker's yeast) (UniProt P00330); assay: mass photometry (native, nMP); samples diluted in their native buffer to 100-400 nM, then drop-diluted to 10-40 nM in a PBS droplet; room temperature (18 °C); triplicates
[4] = target: Alcohol dehydrogenase from baker's yeast (baker's yeast) (UniProt P00330); assay: cross-linking; DSBU at 25:1 to 1000:1 molar excess on 1 mg/mL protein, 45 min at room temperature (20 °C), quenched with Tris HCl; read by denaturing mass photometry (5 min in 5.4 M urea) and SDS-PAGE

Row | Substance | percent of detected species that are monomers (nMP) [1] [%] | stoichiometry N [1] | stoichiometry N [2] | percent of detected species that are monomers (nMP) [3] [%] | stoichiometry N [3] | stoichiometry N [4]
1 | Human 20 S proteasome (complex) | 51 | 28 | 28 | – | – | –
2 | Alcohol dehydrogenase from baker's yeast (from UniProt P00330 1-348) (enzyme) | – | – | – | 46 | 4 | 4
